Source: patent publication US20180193452A1

Molecular target: wild type CAR (WT CAR): human FcεRIα extracellular domain fused to CD3ζ (human)
Sequence (chain, as listed by the source): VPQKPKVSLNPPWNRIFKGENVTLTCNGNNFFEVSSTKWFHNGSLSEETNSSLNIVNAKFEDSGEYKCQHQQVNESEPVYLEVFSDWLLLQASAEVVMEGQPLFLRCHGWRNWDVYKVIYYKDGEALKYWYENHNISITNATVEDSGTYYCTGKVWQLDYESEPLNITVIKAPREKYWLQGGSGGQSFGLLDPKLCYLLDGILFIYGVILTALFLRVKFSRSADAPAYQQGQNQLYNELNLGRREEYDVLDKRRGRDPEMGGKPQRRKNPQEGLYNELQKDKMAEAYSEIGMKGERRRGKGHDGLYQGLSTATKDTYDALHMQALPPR
Assay: cell-based or functional assay

purified human IgE (Abcam), sequence (P01854 other isoform, or with tags, fused parts or gaps): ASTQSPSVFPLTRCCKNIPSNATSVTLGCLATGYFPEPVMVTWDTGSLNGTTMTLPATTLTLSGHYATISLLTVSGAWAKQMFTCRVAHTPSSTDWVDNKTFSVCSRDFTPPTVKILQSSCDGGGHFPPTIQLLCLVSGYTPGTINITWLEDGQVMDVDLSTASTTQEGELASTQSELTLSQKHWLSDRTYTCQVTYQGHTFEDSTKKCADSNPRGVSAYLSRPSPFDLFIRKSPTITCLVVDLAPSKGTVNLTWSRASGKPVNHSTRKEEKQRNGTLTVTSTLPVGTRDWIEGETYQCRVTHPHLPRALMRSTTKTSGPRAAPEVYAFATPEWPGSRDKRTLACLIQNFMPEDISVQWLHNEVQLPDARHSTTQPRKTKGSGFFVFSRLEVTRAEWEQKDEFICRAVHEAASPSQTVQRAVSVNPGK

Substance: purified human IgE (Abcam) (from UniProt P01854 1-428) (antibody)
- suppression of CD69 up-regulation by U266 cells, free IgE at 1.7 µg/ml: > 2 fold
- suppression of CD69 up-regulation by U266 cells, free IgE at 10 µg/ml: > 4 fold
